Data: patent US10583180B2, “Method for treating adenosine deaminase severe combined imunodeficiency” (UCL Business PLC, priority 2015, dated 2020)
“Also recorded” adds a separate entry of the source.

Legend:
ADA-deficient SCID = test: Phase I/II clinical trial of autologous CD34+ cells transduced with EFS-ADA lentiviral vector; format: in vivo, human; settings: weight adjusted dose prior to reinfusion
Description: For the non-controlled, non-randomised Phase I/II clinical trial, to assess the safety and efficacy of autologous transplantation of CD34+ cells from ADA-deficient SCID infants following human ADA cDNA transfer by the EFS-ADA lentiviral vector, subjects received the infusion of their autologous, transduced cells following marrow cytoreduction with busulfan.
Patients were selected on the basis of inclusion and exclusion criteria detailed below. A back-up harvest was retained in case of failure of reconstitution following conditioning and re-infusion of transduced cells. For the transduction protocol, CD34+ cells were purified from G-CSF mobilised PBSCs recovered by leukapheresis (Plerixafor could be added to enhance mobilization), whenever possible or from bone marrow harvested under general anaesthetic. Back up cells of 3×10^6 CD34+/kg were stored from a single procedure if sufficient cell counts were available (and if not previously stored). The remaining CD34+ cells were taken forward for transduction. […] After purification, CD34+ cells were immediately transduced with the lentiviral vector, then evaluated for sterility, cell count, and viability, and immediately infused into patients. Several other tests for safety including testing for RCLs were performed on reinfused cells and results recorded retrospectively. […]

ADA−/− mice = test: Reconstitution of lethally irradiated ADA−/− mice with transduced lin-ve cells, analysed after 12 weeks; settings: mouse, in vivo
Description: Early models of ADA deficient mice were limited by embryonic or peri-natal lethality as a result of severe hepatocellular and pulmonary damage. A two stage transgenic strategy in which ADA expression is restricted to trophoblasts rescues ADA null mice from pre- and peri-natal lethality and allows post-natal study of mice lacking ADA expression. In this model, many features of the human disease are accurately represented. Mice show abnormalities of thymic architecture with a significant block in thymocyte development at the CD4-CD8- double negative stage. […] In the periphery, there is a profound lymphopaenia with a severe T, B and NK cell deficiency that is seen in humans together with abnormalities in splenic lymphoid architecture and a paucity of splenic T cell populations. Murine ADA deficiency also manifests a number of non-immunological abnormalities including lung, renal, costochondral and neurological changes. Pulmonary problems are present in mice from ˜postnatal day 12 and are associated with significant lung inflammatory changes, eventually leading to the death of mice by postnatal day 22 from pulmonary insufficiency, unless early treatment is initiated. […] Mice were analysed after 12 weeks and compared with ADA−/− mice, mice that had undergone wild type transplant experiments (WT) or mice that had been treated with enzyme replacement therapy alone. […]

ADA-SCID patients = settings: cited from earlier work

Row | Molecule | toxicities of conditioning (ADA-deficient SCID) | T cells in the mononuclear fraction of peripheral blood (ADA−/− mice) | overall probability of surviving 20 years on ERT (ADA-SCID patients; estimated) | enzyme activity on a ml to ml basis relative to packed erythrocytes (ADA-SCID patients; in vivo) | patients developing antibodies against bovine epitopes (ADA-SCID patients; in vivo) | probability of surviving the next 12 years (ADA-SCID patients; patient alive 6 months after starting ERT)
1 | CS(=O)(=O)OCCCCOS(C)(=O)=O [Busulfan] | No toxicities; also recorded: without any significant toxicity | – | – | – | – | –
2 | PEG-ADA: bovine form of ADA conjugated to polyethylene glycol; enzyme replacement therapy (conjugate, UniProt P56658 2-363, looked up, PEG conjugate (pegademase bovine), bovine form of ADA conjugated to polyethylene glycol; enzyme replacement therapy) Adenosine deaminase: AQTPAFNKPKVELHVHLDGAIKPETILYYGRKRGIALPADTPEELQNIIGMDKPLSLPEFLAKFDYYMPAIAGCREAVKRIAYEFVEMKAKDGVVYVEVRYSPHLLANSKVEPIPWNQAEGDLTPDEVVSLVNQGLQEGERDFGVKVRSILCCMRHQPSWSSEVVELCKKYREQTVVAIDLAGDETIEGSSLFPGHVKAYAEAVKSGVHRTVHAGEVGSANVVKEAVDTLKTERLGHGYHTLEDATLYNRLRQENMHFEVCPWSSYLTGAWKPDTEHPVVRFKNDQVNYSLNTDDPLIFKSTLDTDYQMTKNEMGFTEEEFKRLNINAAKSSFLPEDEKKELLDLLYKAYGMPSPASAEQCL | – | marked increase in T cell recovery | 78% | ~1800 times | ~50% | about 90%
